Laboratory results as given in paper PMC11267363, “Supramolecular Nanofibers Ameliorate Bleomycin‐Induced Pulmonary Fibrosis by Restoring Autophagy” (Advanced Science, 2024).

Biological target: T1, Recombinant human TRB3 (tribbles homolog 3) (human, UniProt Q96RU7 1-358)
T1 construct: pseudokinase tribbles homolog 3 (TRB3), human, recombinant; as I recall, the catalogue suffix H09B stands for a His and GST tagged protein made in baculovirus-infected insect cells (surmise); also called TRB3 protein; human TRB3 protein; source: bought: Sino Biological (10731-H09B)
T1 sequence (looked up): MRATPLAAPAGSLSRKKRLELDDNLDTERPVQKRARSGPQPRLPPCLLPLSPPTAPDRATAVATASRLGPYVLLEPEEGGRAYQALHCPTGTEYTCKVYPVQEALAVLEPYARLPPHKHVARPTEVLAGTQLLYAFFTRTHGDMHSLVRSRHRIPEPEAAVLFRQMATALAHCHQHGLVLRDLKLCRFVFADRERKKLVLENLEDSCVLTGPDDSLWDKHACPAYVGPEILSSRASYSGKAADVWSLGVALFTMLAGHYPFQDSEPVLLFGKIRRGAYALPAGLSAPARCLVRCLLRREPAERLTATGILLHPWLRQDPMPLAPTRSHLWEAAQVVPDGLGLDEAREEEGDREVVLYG
Experiment: MST; Monolith NT.115; Ac-GFFY-A2 or A2 against human TRB3 protein or BSA (negative control); which partner was labelled is not told
Conditions: both partners purified

B1: A2 peptide (TRB3-binding peptide fragment derived from p62) (peptide)
peptide: GGWLTRLLQTK
notes: also called non-self-assembling peptide A2; source: synthetic peptide (SPPS, purified by HPLC)
Kd: ~3.21 µM
